The target of assay [1] is HIV-1 Env of strain T257-31 (HIV-1).
In assay [2] the target is HIV-1 Env of strain P0402_c2_11 (HIV-1).
For assay [3], the target named is HIV-1 Env of strain CAP45.2.00.G3 (HIV-1).
Assay [4] addresses HIV-1 Env of strain ZM249M.PL1 (HIV-1).
Assay [5] deals with HIV-1 Env of strain 3016.v5.c45 (HIV-1).
Assay [6] addresses HIV-1 Env of strain Ce0682_E4 (HIV-1).
The target of assay [7] is HIV-1 Env of strain T255-34 (HIV-1).
For assay [8], the target named is HIV-1 Env of strain X1254_c3 (HIV-1).
Assay [9] has as its target HIV-1 Env of strain 6535.3 (HIV-1).
The target in assay [10] is HIV-1 Env of strain CNE58 (HIV-1).
For assay [11], the target named is HIV-1 Env of strain PVO.4 (HIV-1).
For assay [12], the target named is HIV-1 Env of strain 89-F1_2_25 (HIV-1).
In assay [13] the target is HIV-1 Env of strain T278-50 (HIV-1).
The target in assay [14] is HIV-1 Env of strain 1056_10_TA11_1826 (HIV-1).
The target of assay [15] is HIV-1 Env of strain 6480.v4.c25 (HIV-1).
Assay [16] deals with HIV-1 Env of strain X1193_c1 (HIV-1).
Assay [17] deals with HIV-1 Env of strain 3718.v3.c11 (HIV-1).
The target of assay [18] is HIV-1 Env of strain TRO.11 (HIV-1).

Data on four substances can be found in patent publication US20200165325A1.

On to NIH45-46 G54Y IgG (antibody), for which the In vitro neutralization IC80 is 0.67 µg/mL in assay [1]; 0.049 µg/mL in assay [2]; over 50 µg/mL in assay [3]; 0.011 µg/mL in assay [4]; over 50 µg/mL in [5]; 0.065 µg/mL in assay [6]. The In vitro neutralization IC80 was 0.174 µg/mL in assay [7]; 0.041 µg/mL in [8]; 0.24 µg/mL in [9]; 0.11 µg/mL in assay [10]; 0.18 µg/mL in assay [11]; over 50 µg/mL in assay [12]. For the same substance, the In vitro neutralization IC80 was over 50 µg/mL in [13]; 0.189 µg/mL in assay [14]; 0.051 µg/mL in [15]; 0.024 µg/mL in assay [16]; 3.85 µg/mL in assay [17]; 0.22 µg/mL in assay [18].

Take NIH45-46 IgG (wild type) (antibody): the In vitro neutralization IC80 is 1.38 µg/mL in assay [1]; 0.214 µg/mL in [2]; over 50 µg/mL in [3]; 0.053 µg/mL in assay [4]; over 50 µg/mL in [5]; 0.155 µg/mL in assay [6]. Moreover, the In vitro neutralization IC80 in assay [7] is 3.44 µg/mL; in assay [8] it was 0.107 µg/mL; in [9], 0.54 µg/mL; in [10], 2.08 µg/mL; in assay [11], 0.41 µg/mL; in assay [12] it was over 50 µg/mL. The In vitro neutralization IC80 in assay [13] was over 50 µg/mL; in [14] it was 0.447 µg/mL; in assay [15], 0.1 µg/mL; in assay [16] it was 0.064 µg/mL; in assay [17], over 50 µg/mL; in assay [18], 7.49 µg/mL.

Turning to NIH45-46 G54F IgG (antibody), the In vitro neutralization IC80 was 0.51 µg/mL in assay [1]; 0.047 µg/mL in assay [2]; over 50 µg/mL in assay [3]; 0.016 µg/mL in assay [4]; 37 µg/mL in [5]; 0.056 µg/mL in [6]. Moreover, the In vitro neutralization IC80 was 0.198 µg/mL in assay [7]; 0.043 µg/mL in assay [8]; 0.27 µg/mL in assay [9]; 0.11 µg/mL in [10]; 0.25 µg/mL in assay [11]; over 50 µg/mL in assay [12]. The In vitro neutralization IC80 in assay [13] was over 50 µg/mL; in assay [14], 0.283 µg/mL; in assay [15] it was 0.046 µg/mL; in assay [16], 0.026 µg/mL; in assay [17] it was 4.62 µg/mL; in [18] it was 0.3 µg/mL.

For NIH45-46 G54W IgG (antibody), the In vitro neutralization IC80 was 0.45 µg/mL in [1]; 0.023 µg/mL in [2]; over 50 µg/mL in [3]; 0.007 µg/mL in assay [4]; 15.4 µg/mL in assay [5]; 0.039 µg/mL in [6]. For the same substance, the In vitro neutralization IC80 in assay [7] was 0.099 µg/mL; in [8], 0.018 µg/mL; in assay [9] it was 0.13 µg/mL; in assay [10], 0.05 µg/mL; in assay [11] it was 0.16 µg/mL; in assay [12], over 50 µg/mL. The In vitro neutralization IC80 is over 50 µg/mL in [13]; 0.16 µg/mL in assay [14]; 0.021 µg/mL in [15]; 0.009 µg/mL in [16]; 0.04 µg/mL in assay [17]; 0.13 µg/mL in [18].
